From US20220363754A1 (SHANGHAI JUNSHI BIOSCIENCES, published 2022)
Values belong to the binder of their own block, whether it stands above or below them.

Tests used:
[1] = target: T1, human TIGIT on Jurkat reporter cells (Jurkat/NFAT-Luc/hPD-1-hTIGIT) (human, UniProt Q495A1 22-244); test: cell-based or functional assay
T1 sequence (looked up): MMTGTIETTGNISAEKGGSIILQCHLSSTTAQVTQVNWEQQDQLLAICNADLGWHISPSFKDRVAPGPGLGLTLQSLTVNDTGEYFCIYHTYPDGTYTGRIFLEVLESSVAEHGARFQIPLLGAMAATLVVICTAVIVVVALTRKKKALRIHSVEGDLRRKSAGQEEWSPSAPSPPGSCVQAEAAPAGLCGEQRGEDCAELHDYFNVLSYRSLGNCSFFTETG

[2] = target: T2, recombinant protein hTIGIT-ECD-mFC (human; mouse, UniProt Q495A1 24-155); test: ELISA, human TIGIT-ECD-mFc coated at 0.5 ug/mL, anti-IgG4-HRP
T2 construct: range 24-155; Expressed in 293E cells; also called human TIGIT-ECD-mFc; not shown: murine IgG2a Fc domain of the vector MX2-mFc
T2 sequence (looked up): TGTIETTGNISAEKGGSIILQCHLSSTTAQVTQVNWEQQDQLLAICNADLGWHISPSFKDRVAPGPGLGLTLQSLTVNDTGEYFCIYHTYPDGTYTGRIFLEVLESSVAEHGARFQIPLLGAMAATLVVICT
Description: (§1) The solution in wells was then discarded, and the wells were washed 3 times with a washing buffer and blocked for 60 minutes with PBS containing 2% BSA. After the plate was washed 3 times with the washing buffer, humanized antibody dilutions at different concentrations were added. The antibodies were incubated at 37° C. for 60 minutes, and then the plate was washed 3 times with the washing buffer and added with 5000-fold diluted anti-IgG4-HRP. The system was incubated at 37° C. for 30 minutes, and then washed three times with the washing buffer and added with 100 μL of TMB substrate for color development. The system was incubated at room temperature for 30 minutes, and the reaction was then terminated with 100 μL of 2 M hydrochloric acid solution. The absorbance at 450 nm was measured by a plate reader.

hTIGIT-Fc = target: T3, hTIGIT-Fc (human, UniProt Q495A1 24-155); test: SPR (Biacore T200), antibody captured by anti-human Fc, antigen in solution, 1:1 model
T3 construct: range 24-155; also called human TIGIT; not shown: Fc part of the Biacore antigen is not described (possibly the murine IgG2a Fc of hTIGIT-ECD-mFC)
T3 sequence (looked up): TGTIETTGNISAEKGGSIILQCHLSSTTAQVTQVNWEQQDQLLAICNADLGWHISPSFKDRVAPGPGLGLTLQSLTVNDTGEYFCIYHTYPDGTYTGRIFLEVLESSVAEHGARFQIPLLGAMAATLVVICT
Description: (§2) An S series CM5 chip (GE) was first loaded onto the instrument, and 40 μg/mL of goat anti-human Fc fragment antibody (Jackson ImmuneResearch) dissolved in sodium acetate-acetic acid buffer (pH 5.0) was ready to be coupled to the chip surface. The buffer used for the detection of antibody-antigen binding was HBS-EP+ from GE Healthcare. The antibodies hu3 and hu20 were each diluted to 8 μg/mL and captured on the chip surface. […] The resulting data were analyzed with a 1:1 binding model by using Biacore T200 Evaluation Software 3.0.

Cyno TIGIT-Fc = target: T4, Cyno TIGIT-Fc (cynomolgus monkey, UniProt A0A7N9I9V4 89-209); test: as above
T4 construct: extracellular domain; the whole named entry is XP 015300912.1; also called cynomolgus monkey TIGIT; cynoTIGIT-ECD; not shown: Fc part is not described
Description: as §2

[3] = target: T5, hTIGIT (FACS blocking assay of Example 10) (human, UniProt Q495A1 22-141, limits assumed); test: competitive FACS, antibody titrated from 30 ug/mL in 3-fold steps, blocking of the binding of hTIGIT to its ligand hPVR on the cell surface, MFI; unit taken from the axis Log[concentration] ng/mL
T5 construct: The protocol names only PVR-mFC and 293F-hPVR cells; which of them should be TIGIT cannot be told
T5 sequence (looked up): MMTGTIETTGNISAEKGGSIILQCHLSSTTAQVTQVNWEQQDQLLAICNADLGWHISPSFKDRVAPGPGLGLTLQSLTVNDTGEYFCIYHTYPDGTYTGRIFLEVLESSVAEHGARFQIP
Description: Briefly, antibody dilutions at different concentrations (an initial concentration of 30 μg/mL, 3-fold titration) were each mixed with PVR-mFC (1 ug/mL, 50 μL) and incubated for 30 minutes at room temperature. The mixture was then incubated with cell suspension (stable 293F-hPVR cell line, 2.5×10⁴ cells/well) for 15 minutes at 37° C. After 3 times of elution with PBS, 100 μL of goat anti-human IgG-PE antibody was added, and the system was incubated for 30 minutes in the dark. After 3 times of elution with PBS, detection was performed by FACS. Viable cells were gated on the basis of FSC/SSC, and their geometric mean fluorescence intensity was measured.

[4] = target: T2, recombinant protein hTIGIT-ECD-mFC; test: ELISA, human TIGIT-ECD-mFc coated at 1 ug/mL, anti-IgG4-HRP
Description: as §1, with “chimeric” for “humanized”

[5] = target: T1, human TIGIT on Jurkat reporter cells …; test: cell-based or functional assay; remark: listed apart in the source

T4 sequence (A0A7N9I9V4 entry or part of it): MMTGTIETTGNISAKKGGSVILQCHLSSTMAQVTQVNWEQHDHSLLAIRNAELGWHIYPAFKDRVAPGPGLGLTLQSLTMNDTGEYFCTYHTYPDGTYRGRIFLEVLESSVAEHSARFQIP

B1: humanized antibody hu3 (antibody, human IgG4 S228P, kappa, V domains shown)
VH: QVQLVQSGAEVKKPGASVKVSCKTSGYAFTEYTMHWVRQAPGQGLEWMGGINPNTGGTTYNQKFQGRVTLTVDKSSSTAYMELSRLRSDDTVVYYCAKLLRLMYYFDYWGQGTLVTVSS
VL: DIVMTQSPDSLAVSLGERATINCKASQDVRTAVAWYQQKPGQPPKLLIYSASYRYTGVPDRFSGSGSGTDFTLTISSLQAEDVAVYYCHQHYITPWTFGGGTKVEIKR
notes: Humanized from 2O18
- EC50, luciferase reporter gene experiment (T cell activation) [1]: 0.14 µg/mL
- EC50 [2]: 0.0232 µg/mL
- Kd (hTIGIT-Fc): 0.13 nM
- koff (hTIGIT-Fc): 0.000121 s⁻¹
- kon (hTIGIT-Fc): 935000 M⁻¹ s⁻¹
- Kd (Cyno TIGIT-Fc): 1.42 nM
- koff (Cyno TIGIT-Fc): 0.0003 s⁻¹
- kon (Cyno TIGIT-Fc): 211000 M⁻¹ s⁻¹
- IC50 [3]: 0.0693 µg/mL

B2: humanized antibody hu20 (antibody, human IgG4 S228P, kappa, V domains shown)
VH: QVQLVQSGAEVKKPGASVKVSCKTSGYAFTEYTMHWVRQAPGKGLEWMGGINPNTGGTTYNQKFQGRVTLTVDKSSSTAYMELSSLRSEDTVVYYCAKLLRLMYYFDYWGQGTLVTVSS
VL: DIQMTQSPSSLSASVGDRVTITCQASQDVRTAVAWYQQKPGKAPKLLIYSASYRYTGVPSRFSGSGSGTDFTFTISSLQPEDIATYYCHQHYITPWTFGGGTKVEIKR
notes: Humanized from 2O18
- EC50, luciferase reporter gene experiment (T cell activation) [1]: 0.0424 µg/mL
- EC50 [2]: 0.0378 µg/mL
- Kd (hTIGIT-Fc): 0.209 nM
- koff (hTIGIT-Fc): 0.000163 s⁻¹
- kon (hTIGIT-Fc): 777000 M⁻¹ s⁻¹
- Kd (Cyno TIGIT-Fc): 1.45 nM
- koff (Cyno TIGIT-Fc): 0.000329 s⁻¹
- kon (Cyno TIGIT-Fc): 226000 M⁻¹ s⁻¹
- IC50 [3]: 0.0587 µg/mL

B4: hybridoma antibody 23O20 (antibody, V domains shown)
VH: QVQLQQSGDELVRPGTSVKVSCQAAGYTFTNYWILWIKQRPRHGLEWIGDIYPGGHYTNYNEKFKGKATLTADTSSSTAYMQLNSLTSEDSAIYYCTRYYGPYAMDYWGQGTSVTVSS
VL: DIVMSQSPSSLPVSVGEKVTMSCKSSQSLLYNSNQKNYLAWYQQIPGQSPKLLIYWASTGESGVPDRFTGSGSGTDFTLTISSVKAEDLAVYYCQQYYSYPFTFGSGTKLEIK
- RLU fold change, NFAT-luciferase reporter, antibody alone [5]: 2.3 fold
- RLU fold change, NFAT-luciferase reporter, with JS001 [5]: 2.3 fold

B6: humanized antibody hu69 (antibody, V domains shown)
VH: QVQLVQSGAEVKKPGASVKVSCKASGYTFTNYWILWIRQAPGQGLEWMGDIYPGGHYTNYNEKFQGRVTLTADTSSSTAYMELSRLRSDDTAVYYCTRYYGPYAMDYWGQGTLVTVSS
VL: DIVMTQSPLSLPVTPGEPASISCRSSQSLLYNSNQKNYLAWYLQKPGQSPQLLIYWASTGESGVPDRFSGSGSGTDFTLKISRVEAEDVGVYYCQQYYSYPFTFGQGTKLEIK
notes: Humanized from 23O20; detected with anti-IgG4-HRP in the ELISA, constant regions not otherwise stated
- EC50, luciferase reporter gene experiment (T cell activation) [1]: 0.103 µg/mL
- EC50 [2]: 0.0107 µg/mL

B7: humanized antibody hu81 (antibody, V domains shown)
VH: QVQLVQSGAEVKKPGASVKVSCKASGYTFTNYWILWIRQAPGQGLEWMGDIYPGGHYTNYNEKLQGRVTLTADTSSSTAYMELRSLRSDDTAVYYCTRYYGPYAMDYWGQGTLVTVSS
VL: DIVMTQSPLSLPVTPGEPASISCRSSQSLLYNSNQKNYLAWYLQKPGQSPQLLIYWASTGESGVPDRFSGSGSGTDFTLKISRVEAEDVGVYYCQQYYSYPFTFGQGTKVEIK
notes: as for B6
- EC50, luciferase reporter gene experiment (T cell activation) [1]: 0.0884 µg/mL
- EC50 [2]: 0.00983 µg/mL

B9: chimeric antibody ch1 (antibody, human IgG4, V domains shown)
VH: EVQLQQSGPELVKPGASVKISCKTSGYAFTEYTMHWVKQSHGKSLEWIGGINPNTGGTTYNQKFKGKATLTVDKSSSTAYMEFRSLTSEDSAVYYCAKLLRLMYYFDYWGQGTTLTVSS
VL: DIVMTQSHKFMSTSVGDRVSITCKASQDVRTAVAWYQQKPGQSPKLLIYSASYRYTGVPDRFTGSGSGTDFTFTISSVQAEDLALYYCHQHYITPWTFGGGTKLEIK
notes: IgG4 chimeric antibody; also called 2O18-ch-HC / 2O18-ch-LC
- EC50, luciferase reporter gene experiment (T cell activation) [1]: 0.0766 µg/mL
- EC50 [4]: 0.0325 µg/mL

Second part, the binder after the results:

- EC50, luciferase reporter gene experiment (T cell activation) [1]: 0.104 µg/mL
- EC50 [4]: 0.00893 µg/mL
B3: chimeric antibody ch4 (antibody, human IgG4, V domains shown)
VH: QVQLQQSGDELVRPGTSVKVSCQAAGYTFTNYWILWIKQRPRHGLEWIGDIYPGGHYTNYNEKFKGKATLTADTSSSTAYMQLNSLTSEDSAIYYCTRYYGPYAMDYWGQGTSVTVSS
VL: DIVMSQSPSSLPVSVGEKVTMSCKSSQSLLYNSNQKNYLAWYQQIPGQSPKLLIYWASTGESGVPDRFTGSGSGTDFTLTISSVKAEDLAVYYCQQYYSYPFTFGSGTKLEIK
notes: IgG4 chimeric antibody; also called 23O20-ch-HC / 23O20-ch-LC

- EC50, luciferase reporter gene experiment (T cell activation) [1]: 0.109 µg/mL
- EC50 [2]: 0.0086 µg/mL
B5: humanized antibody hu62 (antibody, V domains shown)
VH: QVQLVQSGAEVKKPGASVKVSCKASGYTFTNYWILWIRQAPGQGLEWMGDIYPGGHYTNYNEKFQGRVTLTADTSSSTAYMELSSLRSEDTAVYYCTRYYGPYAMDYWGQGTLVTVSS
VL: DIQMTQSPSSLSASVGDRVTITCRSSQSLLYNSNQKNYLAWYQQKPGKAPKLLIYWASTGESGVPSRFSGSGSGTDFTLTISSLQPEDFATYYCQQYYSYPFTFGQGTKVEIK
notes: as for B6

- RLU fold change, NFAT-luciferase reporter (Jurkat hPD-1/hTIGIT + CHO hPD-L1/hPVRL2), with JS001 [5]: 3.3 fold
- RLU fold change, NFAT-luciferase reporter, antibody alone [5]: 6.3 fold
B8: hybridoma antibody 2O18 (antibody, V domains shown)
VH: EVQLQQSGPELVKPGASVKISCKTSGYAFTEYTMHWVKQSHGKSLEWIGGINPNTGGTTYNQKFKGKATLTVDKSSSTAYMEFRSLTSEDSAVYYCAKLLRLMYYFDYWGQGTTLTVSS
VL: DIVMTQSHKFMSTSVGDRVSITCKASQDVRTAVAWYQQKPGQSPKLLIYSASYRYTGVPDRFTGSGSGTDFTFTISSVQAEDLALYYCHQHYITPWTFGGGTKLEIK
